Data on 18 sequences can be found in a protein production outcome set (Wang et al. 2014).

A short description of the data set: label from the status in PepcDB records.
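Further: failed if final PepcDB status was selected cloned or expressed and not failed if soluble or beyond.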

As to “MSEPFTPGDLKTILHSKRANLYYLEHCRVLVNGGRVEYVTDAGKQSLYWNIPIANTTTLLLGTGTSVTQAAMRELAKAGVMVGFCGGGGTPLFSAGEVEMEVAWQSPQSEYRPTEYLQWWARFWFDDDKRLQAAKQLQQARLARIRAQWLDNRQLREAGFEIEPSRLTQLLDASLASLERAPDHTALLTEEARLSKQLFRLAAQATAYGEFTRAKRGGGVDPANRFLDHGNYLAYGLGATAAWVLGLPHSLAILHGKTRRGGLVFDAADLVKDAAILPQAFVSAMKGDDEQTFRQQCIEQLARGEALDFMIDQLQRIAEQLGRDG”, the protein production result is given as “failed”.

On to “MSEPRLPERAEWGTFALILACYGAWLAVIFGLAGLSLWLAIAAMGLVAALHSSLTHEALHGHPFRYRWLNEALMALPLTLCIPYNRFRDLHLAHHLDANLTDPYDDPESNYLDPAIWSRLPGWQRRLYALNNTLAGRMVLGPLIGTACFLRDEARGALRGDRAILLAWALHLPGMAGVLWVVSLSPMPIWAFALSAYIGLGLLKIRTFLEHRAHEKSRARTVVIEDRGLLAFLFLNNNYHVVHHMNPGAPWYALPALYRAGKERYLGCNEGYSYRSYGEVFRRYFWRAKDPVPHPLWPKP”, for which the protein production result is recorded as “failed”.

Take “MSEPSLDKSSFNQPSWRNALAGLQMLFVAFGALVLMPLITGLDPSVALFTAGIGTILFQFITKQQVPLFLASSFVFIAPIAYSVQTWGIAVAMGSLFVTGLVYVLIASVVAVRGAGFLHKLMPPVVTGPIIMVIGLSLAPIAVNMAMGKAGDGSAVLFPYADSLIVSMSALITTLLVATLGKGIFRLIPIMAGVFVGYIMASVMGMVSTEAIANSEWFAIPNFVTPEFNLTAILFMLPVAIAPAIEHVGDIIAIGSVTGKDYTKSPGLHRTLLGDGLATSLASLFGGPPNTTYSEVTGAVMLTKMFNPKIMLWAAAFAIGLAFVAKFGLALQTIPAPVMGGILILLFGSIAGVGMNILIKAQVDLAEQRNLVIVSTTLVFGIGGMAIGNDDFSLTGISLCGLVAIALNAIIPQTQLEEESLVQEETIVEDLVEHAKGKEIN”: the protein production entry is reported as “failed”.

For the sequence “MSEPVQLRQHGNAAVAMPLDALLAARTVWRAGQGRATVNGGESTGHAALDALLPDGGWPRRALTELLLPAHGIGEIALLLPTLARMTARGSRVVLVAPPFIPYAPAWQAGGVVLEHLEVVQAEPRAALWAFEQCLRSGACAAVLGWPQTGDARALRRLQVAADSGNCCAFALRDRRHAVNASPAALRLEFLPERDAWQVRKCRGGQVPSQPLRLAH”, the protein production entry is on record as “failed”.

With “MSEQKAPIIVKRIKKTSGGHHGGAWKIAYADFVTAMMAFFLLMWLLGSTTRGDLEGIAEYFKTPLKVAMQGGTGSGDSSSVIKGGGADLTRKNGQIKKGEVDADRKSYNLKAAQAELERLETAKLKQLKQRLEAAIDRNPTLKQFKRQLLIDITSEGLRIQIVDEQNRPMFNLASAELQPYTKVILHEIAQVLNDVENRISLSGHTDARPYANGERGYSNWELSADRANASRRELIVGGMSEAKMLRVVGLASSVPFTQAKPFDPVNRRISIIVLNKRTEEAITKEASGAEVTDQNGASDALDRRAPPSDVAAPAAAAK”, the protein production entry is “failed”.

“MSEQRQDKNLLSEPHKTESDEIEIDLVDIFRKIIAIRRKLYKAIGVGFIIGMIVAVSIPKQYTVKVTLSPEMGSSKGGNGLAGLAASFLGSSATTGEVSDALNASLSSDIVSSTPFLLELLDMKVALSDERTDITLMDYLDRQSSPWWNYVIGLPGMVIGGVKSLFNSDDNDNSLNKVKSGTIELTKEEGIKVNVLKKNISASVDKKTAITSVSVTLQDPKVTAVVADSVVHKLQECIVGYRISKAEEDCIYLEKLYKERQQEYYVAQKKYADYVDTHDNLILQSVRAEQERLQNDMNLAYQVYSQVANQLQVARAKVQEEKPVFAVIEPAVVPQHASSIGLRIYVLLFIFLSVCYTISWNLLGKKIRYILKGSKENQQ”: the protein production result is given as “failed”.

Regarding “MSERAIAHLGPVGTYAEMAALRFQAWLTQQDQQPSRLLACRSIPATLQTLADGAVDYAVVPVENSVEGSVAATLDSLWQLPQLSIQRALILPIAHALISFESDRTAIRQVLSHPQALAQCQQWLQRHLPQAELIPANSTTEALQDLERHPQRAVIASTRAAELYQMPIQSFPINDSPDNRTRFWVISRSPTPGGACTSLNFSLDANVPGALVKPLQILADRRINLSRIESRPTKRSLGEYLFFLDLEADLRDPAIAAAVQAVADCTEQLRVLGSYDSLDFTQSVLVPAQAR”, the protein production result was “failed”.

Regarding “MSERKINDEPKSMLLLQRGEEFGKVNNGSKNRAFSSFTKFKIPSQFKTNSSITSFSNRREDIREPNSNSLFSMYNNDVLLKYDTTEVALATTNMFTHTVWNNKSEEIISYGYGSHVSFSCFIGFHY”, the protein production result is “failed”.

With “MSERNPILITGAAGEVGGVSRTTVDMLLEQGHPVRAFVRQDDERAHALRQAGAEVFVGDLLTIADVSAALKGVRRIYFSMSLSPYYTDAVSLMAAAARAQGDIEVFVNISEYEQSFMTFEKMTAPEEERRAWLGGLVANWSPQQRAHWVAEQVLDWSGLPTVNIRAAMFVENPLMTWLALEPLANGELRLPFGHHRLAPIAGYDVAELCVKILADPAPHISKSYDLNGPELKDMHGFAEDYAAALGRQVTYVPEDVETWNETYVDTVLGALPHTAEHLKTLTRLMGGGGYRGVTDQLETLLGRPPKTVRWALENHPRIRKLASA”, the protein production entry is reported as “failed”.

As for “MSERVCAVIVTYNRKALLRECLKAVLSQTRPPDHVLVVDNASTDGTPEMLQEEFPQVEVLRLPENQGGAGGFHEGMKRAYEQGVDWLWLMDDDTIPKAKALEALLEAARLPLDPRPRVLASRQLLPNGLPHPTTAFVNPTDPRHPFLWLRLRPRYRPIRWALFTSVLLHRSLVEEHGLPHKAFFIWEDDLEYTARALRRGLGLQVRDSEVIHKSASKPYISATTGENRLFYGVRNRIWVLRSPAFGPLGKAFLALQLLFGLLTYLAFHPSQKSLQEIGRALRAGLTTSPCLEHHHHHH”, the protein production result was “failed”.

In the case of “MSESCILFFVKYPEPGKVKTRLGEVVGNDKAAMLYRHFVQDMLQGLARLHADLHICYVPGDADLPEKFKAWLGPQHMFAAQQGLDLGERMKHAMQKAFDDGYDRVVLMGSDIPDYPCELVQKALNDLQHYDAAIGPAFDGGYYLIGFRKDSFCPDVFDGIRWGEADVYQPTVEKMRRARLEVLQLPDWNDVDTVWDLNVLYRTNKNSSFRRSSTYALLRENDALIRQYDIDLPGMAPVEKE”, the protein production entry was “not failed”.

As for “MSESNISGPLAGEYRDLAVYGRLATVTMIWGGTFVAGRYLAGGLSPLLAASLRFLLASLALLGFMAVARIPLVRPSLRQFGQLALLGFFGIFFYNLCFFLGLEQVKASRASLIVALNPAVIALASWALFKERLGRRKLLGIALCLCGAALVICSRDPSALAAQAGSWQGDLLILGCVLGWGVYSLFSRGLNHSLGSLQTVTCSILLGTLMLCAATLIRGEFDLQAVARLNLAQGLSLLYLGVLGSALAYIWYYDGLRRIGATRCGVFIALNPLTAVILGALVLGEQLSPVMGLGGALILGGIYQCNKPLAGGAKKAIL”, the protein production entry is “failed”.

Take “MSETELRKRQAQFTRELHGDDIGKKTGLSALMSKNNSAQKEAVQKYLRNWDGRTDKDAEERRLEDYNEATHSYYNVVTDFYEYGWGSSFHFSRFYKGESFAASIARHEHYLAYKAGIQRGDLVLDVGCGVGGPAREIARFTGCNVIGLNNNDYQIAKAKYYAKKYNLSDQMDFVKGDFMKMDFEENTFDKVYAIEATCHAPKLEGVYSEIYKVLKPGGTFAVYEWVMTDKYDENNPEHRKIAYEIELGDGIPKMFHVDVARKALKNCGFEVLVSEDLADNDDEIPWYYPLTGEWKYVQNLANLATFFRTSYLGRQFTTAMVTVMEKLGLAPEGSKEVTAALENAAVGLVAGGKSKLFTPMMLFVARKPENAETPSQTSQEATQ”: the protein production entry was “failed”.

Take “MSETLAVVRASRPNFLLLAPLCAGLGLAVAWQQGQAPELLHTFLVFLGAVLAHAAVNLLNEYDDFRSGLDMITERTPFSGGSGALPEVPTAARRVLWAGLGTLAVVVTIGLYFLWLRGLPLLVLGAAGVVLVLTYTRWITRSPLLCLLAPGMGFGPIMVLGTVIALGASIDTSALLASLVALLMVSELLLINQIPDAEADRAIGRRHLVITLGPEKAAHLVAGLLLASYGVIVAGMVSGYLAMTSLIALAPLPAAVWISLRLPRVLAMPDQLNRVLGANVAVLLSTLALLVTGLSL”: the protein production result is on record as “failed”.

Turning to “MSEVSVLLLAVILDLLIGEPPHRLHPVVWMGSAVEWMRNILGNSRISGIILTIAVAAPFTLPLFLINHLQDPLNLIISSILLSAVISIRMLVTSALEVGGSLKEDIEDARRKLSMLVSRDTTSLSDEQITSAAIETLTENITDSVTAPIFYFILLGLPGAFLYRVVNTLDAMVGYLDSENRDIGWFPARLDDILNYIPSRITGVLMVPAALLLGMNWRGSFRILLRDARRTPSPNSGFTMAAAAGALSVQLEKPGVYVLGDPCDGLDNEKLLDAVKLSSLTLILFTLAAAGVMLVIP”, the protein production result was “failed”.

For “MSEYLHIIIWFFLIEALSFISVPFIRSAGNRLADGGYSVSRALGIMLVTYLSWIFSYILGFSFTAVLIAFFLLCSVSIFLYRKQKFFPGRKVLVVNELVFASGFFFFLLVRTYLPEIYRHEKFMDFAFLNAVIRASSFPPQDPWFAGGLMDFYYYFGYLSVAVFGKLSAVKPSILFNLAVALTFALSLNAFFGMGYNLTRGKIRYGILTAVFGMLLGNLQGLIEFVSVYIRHEQALGGYYWSSSRVIPFTINEFPYFSFIHGDLHSHMLAIPFQLLVLAFLLNMHFRKNEDSIFENSLALLMFSMSLGFLFPFNSWDFPVYFGLAFLVIFAFYCGDYVHNRNLFAAVAKFSNSMIFISIFSFLPYLLFYLDFNPQAAGGFDFVLPELRTETDRFLILFGLFLFLVFSFLITRLDSRRKIVFFVLLAGVSALLSKAWSIPLLAVLLPVFVFSLLLFLKDIPERSASGFVYLLISAASFIALLCEVIFLDDPISGEFARMNTVFKFYMHLWIFLAISAAYSYYDLNSHYAARSGNRKTLKQFVKKGWSVILVILIICCAIFPAVSTVTRIKEMNAEPSLDGMEYMRELDRGDYNAIRWMQANIKGSPVILETSEDDSSYSYACRVSSNTGIPAVIGWARHERFWGRDHEEVKKRIGDVSLIYSTGSEEEAIELIEKYNVTYVYIGTLERQVYDVNTKKFENKAYFEPVYEGSATIYKLKKKP”, the protein production result is on record as “failed”.

For the sequence “MSFKDLREFIDHLEQKGRLKRITHPVDPAYEMTEISDRTLRAGGPALLFENPIGYNVPVLTNLFGTPERVAIGMGREDVKELREVGKLLAYLKEPEPPKGFKDALEKLPVFKQVLNMPAKRLRKAPCQDIVWQGDEVDLDKIPVMSCWAEDVAPLLTWGLTVTKGPNKKRQNLGIYRQQKIAKNKIIMRWLAHRGGALDLRDWMETNPGKPFPVSVAFGADPATILGAVTPVPDTLSEYAFAGLLRGSKTEVVKSISNDLEVPASAEIVMEGYIDPNEFADEGPYGDHTGYYNEKEKHHVFTITHITMRKDPIYHSTYTGRPPDEPAVLGVALNEVFVPILQKQFPEIEDFYLPPEGCSYRMAVVTMKKQYPGHAKRVMMGVWSFLRQFMYTKFVIVCDESVNARDWNDVVKAMTEHMDPVRDTLMIDNTPIDSLDFASPVVGLGSKMGLDATIKWDAELATRPQISKQDSKVITEADLESLKQQRPEIIDIYLPPTTNNRFAVVTMKKDQAGQSQALMEYLWDFFAQYTDNKFVILCDEDVNARDWNDIIWAVTTRMDPDRDTTRVSGKAESSSKLGLDATNKFESEVTREWGTPIKKDPKLVAKVDEIWDQLGIL”, the protein production entry was “failed”.

On to “MSFLVLLLAVLIEKFSALRQRVQRDEPWLNAFARREASPRTAKRPWLTLALLILVPVLLLQLALTIIGSVAYGWLVLPIHLLVLIYSLGRVDLIAVLGPFRDACRRGDAQAAVHVAQRDMRVEADNGEQLLQGVQGYMLWQAFQSFFAVIFWYFVLGPVAALAYRLLALAAEHGKTPPLVERAGQLRHAFDWVPVRLLAASFALVGNFVAVSRVMLHELLNWNISAAQLITRVGCAASEVPPPVIGTQGVTSLDMLWELLVRAAIVWYAGFALWTLLR”, for which the protein production result is given as “failed”.
